Experimental data as given in patent CN112778416A (KANGYUAN MEDICAL TECH DALIAN CO LTD, dated 2021).
Numbering of substitutions follows the chain as printed.

B1: 纳米抗体CNb20-1 (VHH)
VHH: QVQLQESGGGSVQAGGSLRLSCAASSGILEIFNAMAWFRQAPGKEREWVARIMGSPYGSTEYYADSVKGRFTFSQDNAKNTVYLQMDSLEPEDTATYYCHSAGYDPRGDDYWGQGTQVTVSS
B2: 纳米抗体CNb20-2 (VHH)
VHH: QVQLVESAGGLVQPGGSLRLSCAASGRFTGGSPMGWYRQAPGKRRELVADIMGRGGSNTYADSVKGRFTISRDNAKNTVYLQMNSLKPEDTAVYYCAEAERVSGLLLEVVAEPRGDDYWGQGTQVTVSS
B3: 人源化纳米抗体hCNb20-1 (VHH)
VHH: B1 VHH with Q1E, Q5V, A36S, A50S, R51A, E90R, Q117L
notes: Humanised variant of CNb20-1, purified on Ni Sepharose
B4: 人源化二价多肽hbvCNb20-1 (VHH)
chain: EVQLVESGGGSVQAGGSLRLSCAASSGILEIFNAMSWFRQAPGKEREWVSAIMGSPYGSTEYYADSVKGRFTFSQDNAKNTVYLQMDSLRPEDTATYYCHSAGYDPRGDDYWGQGTLVTVSSGGGGSGGGGSGGGGSEVQLVESGGGSVQAGGSLRLSCAASSGILEIFNAMSWFRQAPGKEREWVSAIMGSPYGSTEYYADSVKGRFTFSQDNAKNTVYLQMDSLRPEDTATYYCHSAGYDPRGDDYWGQGTLVTVSS

Tests used:
[1] = target: T1, 白介素-6 (IL-6) (UniProt P05231 30-212); assay: SPR, IL-6 amine-coupled to CM5 chip, nanobody injected
T1 construct: also called Interleukin-6; 抗原IL-6

[2] = target: T1, 白介素-6 (IL-6); assay: SPR, IL-6 amine-coupled to CM5 chip, polypeptide injected

Binder | Kd [1] | Kd [2] | koff [2]
B1 | 0.0111 nM | – | –
B2 | 0.0423 nM | – | –
B3 | 0.0995 nM | – | –
B4 | – | 0.0807 nM | 0.000184 s⁻¹
